Sequences and labels used below:
B1: A17d4(1) monoclonal antibody (antibody, V domains shown)
VH: QVTLRESGPALVKPTQTLTLTCTFSGFSLSTAGMSVGWIRQPPGKALEWLADIWWDGKKSYNPSLKDRLTISKDTSKNQVVLKVTNMDPADTATYYCARDMIFNFYFDVWGQGTTVTVSS
VL: DIQMTQSPSTLSASVGDRVTITCLPSSRVGYMHWYQQKPGKAPKLLIYDTMYQSSGVPSRFSGSGSGTEFTLTISSLQPDDFATYYCFQGSGYPFTFGGGTKVEIK
B2: P12f2 Fab fragment (Fab, V domains shown)
VH: B1 VH with A32P, G57D, S60H
VL: B1 VL with L24S, P25L, M51F, Q53L
B3: A4B4 monoclonal antibody (antibody, V domains shown)
VH: B1 VH with G57D, S60H
VL: B1 VL with L24S, P25A, M51F, Y52F, Q53L, S54D
B4: P12f2 monoclonal antibody (antibody, V domains shown)
VH: B1 VH with A32P, G57D, S60H
VL: B1 VL with L24S, P25L, M51F, Q53L
B5: A1e9 monoclonal antibody (antibody, V domains shown)
VH: B1 VH with S60H, F105W
VL: B1 VL with L24S, P25L, M51F, Y52K, Q53L
B6: A12a6 monoclonal antibody (antibody, V domains shown)
VH: B1 VH with S60D
VL: B1 VL with L24S, P25A, M51F, Y52K, Q53L
B7: A4B4 Fab fragment (Fab, V domains shown)
VH: B1 VH with G57D, S60H
VL: B1 VL with L24S, P25A, M51F, Y52F, Q53L, S54D
B8: A17d4(1) Fab fragment (Fab, V domains shown)
VH: B1 VH
VL: B1 VL
B9: P11d4 monoclonal antibody (antibody, V domains shown)
VH: B1 VH with A32P, S60H, F105W
VL: B1 VL with L24S, Y52R, Q53L, S54A
B10: A8c7 monoclonal antibody (antibody, V domains shown)
VH: B1 VH with G57D, F105W
VL: B1 VL with L24S, M51R
B11: A13a11 Fab fragment (Fab, V domains shown)
VH: B1 VH with G57D, S60H, F105W
VL: B1 VL with L24S, M51Y, Y52R, Q53H
B12: P12f4 monoclonal antibody (antibody, V domains shown)
VH: B1 VH with A32P, S60H
VL: B1 VL with L24S, P25L, M51R, Y52G, Q53L, S54P
B13: A13c4 Fab fragment (Fab, V domains shown)
VH: B1 VH
VL: B1 VL with L24S, P25L
B14: P12f4 Fab fragment (Fab, V domains shown)
VH: B1 VH with A32P, S60H
VL: B1 VL with L24S, P25L, M51R, Y52G, Q53L, S54P
B15: A1h5 Fab fragment (Fab, V domains shown)
VH: B1 VH with S60H, F105W
VL: B1 VL with L24S, P25L, R28S, M51F, Y52F, Q53H, S54R
B16: A8c7 Fab fragment (Fab, V domains shown)
VH: B1 VH with G57D, F105W
VL: B1 VL with L24S, M51R
B17: A13c4 monoclonal antibody (antibody, V domains shown)
VH: B1 VH
VL: B1 VL with L24S, P25L
B18: A1e9 Fab fragment (Fab, V domains shown)
VH: B1 VH with S60H, F105W
VL: B1 VL with L24S, P25L, M51F, Y52K, Q53L
B19: A12a6 Fab fragment (Fab, V domains shown)
VH: B1 VH with S60D
VL: B1 VL with L24S, P25A, M51F, Y52K, Q53L

Residue numbers refer to the chain shown, from its start.

In this test the target is RSV (Long strain) F protein on infectious virus (respiratory syncytial virus (Long strain)) (UniProt P12568). As to the kind of experiment: cell-based or functional assay.
RSV (Long strain) F protein on infectious virus (respiratory syncytial virus (Long strain)), sequence (P12568 26-574): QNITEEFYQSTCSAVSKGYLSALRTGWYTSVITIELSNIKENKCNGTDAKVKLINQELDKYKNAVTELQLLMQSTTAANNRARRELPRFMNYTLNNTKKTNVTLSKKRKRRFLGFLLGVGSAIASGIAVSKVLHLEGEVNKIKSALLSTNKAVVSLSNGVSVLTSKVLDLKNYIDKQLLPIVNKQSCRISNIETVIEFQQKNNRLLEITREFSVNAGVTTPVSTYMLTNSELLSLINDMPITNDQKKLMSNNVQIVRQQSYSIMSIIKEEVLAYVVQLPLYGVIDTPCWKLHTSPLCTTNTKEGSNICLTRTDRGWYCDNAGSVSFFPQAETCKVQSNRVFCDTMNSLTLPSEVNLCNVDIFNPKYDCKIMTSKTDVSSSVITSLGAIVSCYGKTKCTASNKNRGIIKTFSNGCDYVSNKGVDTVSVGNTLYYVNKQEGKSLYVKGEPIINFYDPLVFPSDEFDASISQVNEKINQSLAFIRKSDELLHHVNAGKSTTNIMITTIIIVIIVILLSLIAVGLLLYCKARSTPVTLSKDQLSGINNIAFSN
The molecule B1 showed a Fold Difference (Control IC50), against palivizumab of 15 fold and a Fold Difference (Curve IC50), against palivizumab of 13 fold.
As for B2, the Fold Difference (Control IC50), against palivizumab was 16 fold and the Fold Difference (Curve IC50), against palivizumab was 11 fold.
B3: the Fold Difference (Control IC50), against palivizumab was 35 fold and the Fold Difference (Curve IC50), against palivizumab was determined as 27 fold.
The molecule B4 had a Fold Difference (Control IC50), against palivizumab of 24 fold and a Fold Difference (Curve IC50), against palivizumab of 20 fold.
As for B5, the Fold Difference (Control IC50), against palivizumab amounted to 8 fold and the Fold Difference (Curve IC50), against palivizumab stood at 7 fold.
Molecule B6 registered a Fold Difference (Control IC50), against palivizumab of 15 fold and a Fold Difference (Curve IC50), against palivizumab of 13 fold.
Taken in the same sequence, the figures for B7 were 13 fold and 11 fold.
For the molecule B8, the Fold Difference (Control IC50), against palivizumab was 31 fold and the Fold Difference (Curve IC50), against palivizumab was 25 fold.
Turning to B9, the Fold Difference (Control IC50), against palivizumab was 19 fold and the Fold Difference (Curve IC50), against palivizumab amounted to 21 fold.
The molecule B10 showed a Fold Difference (Control IC50), against palivizumab of 14 fold and a Fold Difference (Curve IC50), against palivizumab of 13 fold.
With B11, the Fold Difference (Control IC50), against palivizumab was 5 fold and the Fold Difference (Curve IC50), against palivizumab was found to be 4 fold.
With B12, the Fold Difference (Control IC50), against palivizumab was 23 fold and the Fold Difference (Curve IC50), against palivizumab worked out at 19 fold.
B13 showed a Fold Difference (Control IC50), against palivizumab of 21 fold and a Fold Difference (Curve IC50), against palivizumab of 17 fold.
In turn, B14 came in with a Fold Difference (Control IC50), against palivizumab of 15 fold and a Fold Difference (Curve IC50), against palivizumab of 10 fold.
Taken in the same sequence, the figures for B15 were 3 fold and 2 fold.
Consider B16, for which the Fold Difference (Control IC50), against palivizumab is 34 fold and the Fold Difference (Curve IC50), against palivizumab stood at 3 fold.
The like results for B17 were, in that order, 14 fold and 12 fold.
For the molecule B18, the Fold Difference (Control IC50), against palivizumab was found to be 4 fold and the Fold Difference (Curve IC50), against palivizumab stood at 3 fold.
Taken in the same sequence, the figures for B19 were 17 fold and 16 fold.

The values above are taken from patent US20100278929A1.
